This data set in a line: soluble on expression in E. coli; label from the status in PepcDB or PDB records.
For “MLVLGDAHATTPGRRRALFAAYRAANESVAVQAGDLMYYDLPVQTYFIGGNNEDFDAIDALRNGRVESDDVANATLLNSTAATVDGRRVAGLTGNYAPTQFDKPRAVLRGDRRRHFVRSDVEAVMDLDDIDIFVAHEAPNGLPVEEDYDVGCQHIDDILDALQPSLCLVGHHHQHAECDYGDTHVVGLEPAWESYYVVDPDTLAVTRHDTPPALEHHHHHH”, the “soluble on expression in E. coli” value is listed as “not soluble”. Regarding “MLVLYLVFKKFLFKPVMKVINAREDMIKQQFDDAKKSQEEADALKASYDEKLESAKTEADEIIVNARNRAQEEHEAALEKTRKETEVMLEKAKADIATEKEKATEAAQADIARLALIAARKIVKTGDAHDAGSSK”, the “soluble on expression in E. coli” value is recorded as “not soluble”. Under “MLVWEELREKALNKIYHDKEIGYLDPDILGFLLAFYRNRNDVYTQSSCSGRITIVDAEMPWDRKNSTIIFKNHLRITEQDLEDVLSKNQVRRLWLIVQGPIIHIYAKNIETGWDILKIAREAGFKHSGILATNQKGVLVELRTGIRMVHLLRESNTERVDKDKIKTLVNVCNEVLARGKQKMNLLKDLLSSSSNNSMELGKNSKLKTPI” stands “soluble”; under “MLWHAMPPELNTARLMAGAGPAPMLAAAAGWQTLSAALDAQAVELTARLNSLGEAWTGGGSDKALAAATPMVVWLQTASTQAKTRAMQATAQAAAYTQAMATTPSLPEIAANHITQAVLTATNFFGINTIPIALTEMDYFIRMWNQAALAMEVYQAETAVNTLFEKLEPMASILDPGASQSTTNPIFGMPSPGSSTPVGQLPPAATQTLGQLGEMSGPMQQLTQPLQQVTSLFSQVGGTGGGNPADEEAAQMGLLGTSPLSNHPLAGGSGPSAGAGLLRAESLPGAGGSLTRTPLMSQLIEKPVAPSVMPAAAAGSSATGGAAPVGAGAMGQGAQSGGSTRPGLVAPAPLAQEREEDDEDDWDEEDDW”, “soluble”.

As to “MLYKIYSYLGWRIDMKTENLPQAGQEAQIDKKIHFIWVGHIMPQKNIQVVSEWAEKNPGYETIIWVDKKIAPAKELDLFILDMKSKGITVKDINEEGVCRDSIRHELDQESPNYGMVSDMLRLNILAAEGGIYLDSDILCSAPFPDEIYAPFGFLLSPWSQGANNTLCNDIILCSKGNQIIQQLADAIEQSYIARDSFEFTHEYASMKETKGERIAKTLGVTGPGFLFHQLKKMGILNDKSEMEAIHWELQDQRYLIDGSVKEPDYFYVPQNNTNDASWVPSIKRPGIENMSFQERLENAVQLIAFDIQKTGLFNLDHYANELKVKQNSWCIAAETSPELKPDSYLLIRPRDKTGEWTLYYVDEDKKLNPVTLPVIKGAIKLSEVSDPLRKFHTLLSQVSDPVNPTAHELKQIGRALIELKPRQDEWHCKNKWSGAEEIAQELWQRITSNETLRAQIKQCFTQFESLKPRVAELGLTRASGAGTEVEAHESTVKEQEIISQNTVGEEGTKEKNSVQLASENSSDEKIKTAHDLIDEIIQDVIQLDGKLGLLGGNTRQLEDGRVINIPNGAAMIFDDYKKYKQGELTAESALESMIKIAKLSNQLNRHTFFNQRQPETGQFYKKVAAIDLQTTIAAEYDNNHGLRILEHHHHHH”, the “soluble on expression in E. coli” value is on record as “not soluble”. In the case of “MLYLNQKPEYSKYDIGDYTYSKVGPTIFSWNDETKLKIGKFCSLGEEVVFLLGGEHRADWITTYPFNALFGEGAHITGHPSSKGDIVVGNDVWIGYQSCISSGVTIGNGAIIGARSVITKDVPPYAIVAGNPAKFVRYRFPQETIDKLESLAWWDWDISVIKGAIPLLLSNKIDEFFTSPEKEST”, the “soluble on expression in E. coli” value is “not soluble”. With “MLYLTQRLEIPAAATASVTLPIDVRVKSRVKVTLNDGRDAGLLLPRGLLLRGGDVLSNEEGTDFVQVIAADEEVSVVRCDDPFMLAKACYALGNRHVPLQIMPGELRYHHDHVLDDMLRQFGLTVTFGQLPFEPEAGAYASES”, the “soluble on expression in E. coli” value is reported as “soluble”. Under “MMDDILKQIKAGEVSGVQFKERILDKYDIACELVAFSNSHGGKLVVGIKDKTGETNALSYSEVQETTNLLSDIASENVVPSILIKIDTVEVEDGNLVVATVKEGLNKPYHDNKGIVWVKNGADKRKVFDNAELAEMMTDCGSFAPDEAGVRDATVNDLDATTIKQFLGNRFERVLDKKGLTGDAFNEASLDMICSAIAKGHDCEKILRNLRFIRPDGTLTVAAMLLFGKYTQRWMPMMTAKCICFAGNSVGSKVFRDKVNDADMEGNLLHQYDTIMDFFTRNLHNVQVGDEFNSMGKLEIPYTSLVEFTVNSLVHRSLNMKAPVRIFIFDNRVEIHSPGALPNGLTIDDIKAGTSMPRNTFLFNNAIYLLPYTGVGSGITRALDEDINVTFMNNDKAQEFVITVWRGESNQVEDLDTGLRHSDTDLDTGLRHSDTDLDTKRVTLTNKEKDIVNFCSVPRTTKEILDRIGVSMHSKNRERYITSLVAAGYLQMTNPDNPTASNQKYKKVNKR” stands “not soluble”; under “MMDDILKQIKAGEVSGVQFKERILDKYDIACELVAFSNSHGGKLVVGIKDKTGETNALSYSEVQETTNLLSDIASENVVPSILIKIDTVEVEDGNLVVATVKEGLNKPYHDNKGIVWVKNGADKRKVFDNAELAEMMTDCGSFAPDEAGVRDATVNDLDATTIKQFLGNRFERVLDKKGLTGDAFNEASLDMICSAIAKGHDCEKILRNLRFIRPDGTLTVAAMLLFGKYTQRWMPMMTAKCICFAGNSVGSKVFRDKVNDADMEGNLLHQYDTIMDFFTRNLHNVQVGDEFNSMGKLEIPYTSLVEFTVNSLVHRSLNMKAPVRIFIFDNRVEIHSPGALPNGLTIDDIKAGTSMPRNTFLFNNAIYLLPYTGVGSGITRALDEDINVTFMNNDKAQEFVITVWRGESNQVEDLDTGLRHSDTDLDTGLRHSDTDLDTKRVTLTNKEKDIVNFCSVPRTTKEILDRIGVSMHSKNRERYITSLVAAGYLQMTNPDNPTASNQKYKKVNKRLEHHHHHH”, “soluble”. To “MMDNNITETEMKVGHPPANKVGGRRVVNRKDRKNSDSNDNANSEGSDEVVREIIDYDLPAKMERSYPTEAVKKVHEKPMPAIQPVHINRDANSGVHRFQPRKQTH” belongs “soluble”; to “MMENYITSFQLRFCPAAYLHLEQLPSLWRSILPYLPQWRDSAHLNAALLDEFSLDTDYEEPHGLGALPLQPQSQLELLLCRLGLVLHGEAIRRCVLASPLQQLLTLVNQETLRQIIVQHELLIGPWPTHWQRPLPTEIESRTMIQSGLAFWLAAMEPQPQAWCKRLSLRLPLATPSEPWLVAESQRPLAQTLCHKLVKQVTPTCSHLFK”, “not soluble”; to “MMEVRINKFLSEAGVASRRKAEKLILEGRVKVNGEVVRSLGVKVNPEVDIVEVDGKPVKPQRKRYIILNKPCCYLTQLGRSPDGRKTIEELIKDIPERVFPVGRLDYNTEGLLILTNDGELANRILHPRYKLPKVYLALVEGKVDQKTLKRMKQGIELEDGFAKPDNIRIVRYEGKNTLLEITFHEGRKHLVKRFLGAFGHKVKRLKRIAIGPIKLGKLSPGKWRELNQGELAQLFKAVGLKYVPRKRRLEHHHHHH”, “soluble”. To “MMGCLPTKQVGRSTHSLNPREAVALAAETSFTVNEVEALYDLFRKLSNSIIKDGLIHKEEFHLALFRNKKTNLFVDRVFDLFDQKGNGVIEFDEFVRSLSVFHPDAPEEQKAGFAFKLYDLRQTGFIERHELKEMVLALLDESDLNITSDAVEMIVDRTFDQADTKGDERIDQEEWNEFVKNNPYVLRNMTLPYLKDLTMVFPSFVIHSEVSEADMVA” belongs “soluble”; to “MMGNKLTLPAELPDEQDLRAVLAYNMRLFRVNKGWSQEELARQCGLDRTYVSAVERKRWNIALSNIEKMAAALGVAAYQLLLPPQERLKLMTNSADTRQMPSESGI”, “not soluble”; to “MMKQNPILITGGTGTVGSRIASRLIKLGYRVRIASRKKGALADAEYVYFNWKYASSFTPALEQVKQIYLVAPVGVFDPAPYVLPFLKEAKRLGAKRVVMQSASVVSENGPVFGALHQAVREFPEWTVLRPSYFMQNFINVQHRMSIQTEGRITTASGEGKLGFIDADDIAETAVRALIDDVPHQTHHILTGPEALSYAEAAEIIGAAAGRRVEHVSISRSELQHKMEAGGLPADYAHFMAKLDEAISHGAEHRVTDTVKRVTGKEPRSLSEFAAAHAAYWTSFWTELEHHHHHH”, “not soluble”.

As for “MMLITTSHRPTRRTRSFGHDLERVFPNSLYLTRGKKTIQELLMEAYDRGYERLLILNVWKGNPLKMTFIKVHPEDWGYLGYLYLHGIKLQREMGFKGLNPIREDMPLVVTTAKRVGWDHIAFAQVFAELTTGKFVPRGDKSLTYIADKYDTDVIAVIERHPRGMVINFYRLDVTKDRPVGPLINVKIWIMEDGRRWDYKEALGIKVPRREKGEGQESSSENRDLEHHHHHH”, the “soluble on expression in E. coli” value is “soluble”.

For “MMLNNFETDSIFTPEQVLENRGRVAIFIDGSNLFYAALQLGIEIDYTKLLCRLTGGSRLLRSFFYTGVDRTNEKQQGFLLWMRRNGYRVIAKDLVQLPDGSKKANLDVEIAVDMMALVDSYDTAVLVSGDGDLAYAVNSVSYRGVRVEVVSLRSMTSDSLINVSDRYIDLEAIKEDIQKTPRQSYPYRPLSGIGFLEDPRTSDGHLEIQE”, the “soluble on expression in E. coli” value is “not soluble”. Under “MMLSNFKRNKYQQHLAQLPRISQNADDVQTLHSPELFRTTLTNAILRAKKRVYIVALYLERDDGGIGILSAIYEAKRQCPELDVRVLVDWHRAQRGRIGTAAENTNADWYCDMAKKHPDTHFPIYGIPVNTREALGVLHLKGFIVDDTVIYSGASLNDVYLHQHQKYRYDRYQLIHNPVLADTMVQYIQTMLSAPAVQRLDHTDRPKSLEIKNDIKQFRQTLRTASYQAPECSANANELTVTPLVGLGKQSPLNKTIHHLMYCADEHLVICTPYFNMPALLVRNIIRLLRDGKKVEIIIGDKTANDFYIPEDQPFKIIGALPYLYEINLRRFLSRLERYIENQQLVVRLWKDGDNSFHLKGMWVDGKWQLLTGNNLNPRAWRLDLENAILIHDPQQVLLQQRLDELDTIRTHTHVVKSYTELESIAQYPVKVRKLIRRLRRIRIDRLISRILLEHHHHHH” stands “not soluble”; under “MMNKLPHETRVVIGMSGGVDSSVAALLLKEQGYDVIGIFMKNWDDTDENGVCTATEDYNDVIEVCNQIGIPYYAVNFEKQYWDKVFTYFLDEYRAGRTPNPDVMCNKEIKFKAFLEHAIALGADYVATGHYARVAYMDGEYKMLRGVDDNKDQTYFLNQLSQEQLSKTMFPLGELKKPQIREMAKEAGLATAAKKDSTGICFIGERNFKDFLSNYLPAQPGVMQTLSGEVKGKHDGLMYYTIGQRHGLGIGGNGDPWFAVGKNLKENILYVDQGFHNELLYGDEVIATNVGWVSNKEKETEFKCTAKFRYRQEDNKVTVQIVDENTVRILCDEPIRAITPGQAVVFYDGDECLGGATIDEVYRSGKKLDYLG”, “not soluble”; under “MMPNEKITLKQLIDHCFDTTKTTIKQQIVFGAGKIENKNFNIVGTVEDTSFGVDESIEMARCILDIIKNNNTDPIVLLTDVAGQKLAVRDEWLGMYAYFAHLLKCLHLARQNGNKIITLIYNQAIGGSFIAFGMMADRIYALKNAKLAVMWLEGMSKVTKIDIDVLRKISETSPVFAPGVENFKKLGGLHQVLDLDEVSQQLLLTLQEPNISHDNRAELGKQYGGRKEAYDIIKAIENL”, “not soluble”. Consider “MMYPYVRLFMEMRRARRLDPLPVLGTHRSSHRCLPWDLAPWRELNNGRTLTLFDLGRAPLLVRTGMQRICSEKGWGMTVAGSSVRYRRRVVLMERLEMVSRCLGWDGRFFYMEQSLWRKGDCTSHMLLRAATTTGSGIVPPAEVAAALGAGESPPLPDWAQAWIEADALRPWPPAALEHHHHHH”, for which the “soluble on expression in E. coli” value was “not soluble”.

Source of the values: the DeepSol protein solubility set.
